Laboratory results: patent US20210363265A1 (INVENRA, published 2021)
Values belong to the binder of their own block, whether it stands above or below them.

Legend:
[1] = biological target: T1, OX40: 127-214-Fc (human); test: BLI, OX40-Fc truncation immobilized on sensor
T1 construct: Immobilized on the BLI sensor

[2] = biological target: T2, OX40: 108-214-Fc (human); test: BLI, OX40-Fc fragment immobilized on sensor
T2 construct: Immobilized on the BLI sensor

[3] = biological target: T3, OX40: 66-214-Fc (human); test: BLI, OX40-Fc fragment immobilized on sensor
T3 construct: Immobilized on the BLI sensor; also called first truncation

[4] = biological target: T4, OX40 on T cells (primary naive CD4+ T cells; Jurkat/OX40 reporter cells) (UniProt P43489 29-277, limits assumed); test: cell-based or functional assay
T4 sequence (looked up): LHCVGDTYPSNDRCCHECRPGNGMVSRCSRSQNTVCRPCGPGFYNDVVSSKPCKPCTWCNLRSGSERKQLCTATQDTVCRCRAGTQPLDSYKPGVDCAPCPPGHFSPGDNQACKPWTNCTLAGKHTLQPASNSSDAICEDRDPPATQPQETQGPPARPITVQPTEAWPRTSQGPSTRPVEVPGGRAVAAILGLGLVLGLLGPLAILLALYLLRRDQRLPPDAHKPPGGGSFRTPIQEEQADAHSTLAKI

T2 sequence (chain, as listed by the source): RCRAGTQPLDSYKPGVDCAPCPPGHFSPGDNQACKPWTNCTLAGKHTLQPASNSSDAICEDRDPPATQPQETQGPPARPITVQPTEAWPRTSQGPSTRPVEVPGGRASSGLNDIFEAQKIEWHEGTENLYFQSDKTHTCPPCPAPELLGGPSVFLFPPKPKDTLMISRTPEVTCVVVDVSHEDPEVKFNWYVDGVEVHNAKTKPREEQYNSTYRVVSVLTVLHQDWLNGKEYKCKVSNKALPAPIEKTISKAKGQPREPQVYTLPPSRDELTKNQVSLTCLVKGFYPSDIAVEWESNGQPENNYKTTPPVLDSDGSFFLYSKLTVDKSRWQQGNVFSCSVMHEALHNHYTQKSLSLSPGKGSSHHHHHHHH
T1 sequence (chain, as listed by the source): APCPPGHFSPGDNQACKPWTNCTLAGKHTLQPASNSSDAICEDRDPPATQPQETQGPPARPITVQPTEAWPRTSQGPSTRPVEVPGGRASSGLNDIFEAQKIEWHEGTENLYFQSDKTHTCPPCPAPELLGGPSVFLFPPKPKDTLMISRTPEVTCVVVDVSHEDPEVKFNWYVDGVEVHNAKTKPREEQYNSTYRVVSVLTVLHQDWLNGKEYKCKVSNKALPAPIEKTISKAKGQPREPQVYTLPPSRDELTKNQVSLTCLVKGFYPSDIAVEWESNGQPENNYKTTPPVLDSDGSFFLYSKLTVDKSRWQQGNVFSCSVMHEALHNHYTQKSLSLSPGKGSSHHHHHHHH
T3 sequence (chain, as listed by the source): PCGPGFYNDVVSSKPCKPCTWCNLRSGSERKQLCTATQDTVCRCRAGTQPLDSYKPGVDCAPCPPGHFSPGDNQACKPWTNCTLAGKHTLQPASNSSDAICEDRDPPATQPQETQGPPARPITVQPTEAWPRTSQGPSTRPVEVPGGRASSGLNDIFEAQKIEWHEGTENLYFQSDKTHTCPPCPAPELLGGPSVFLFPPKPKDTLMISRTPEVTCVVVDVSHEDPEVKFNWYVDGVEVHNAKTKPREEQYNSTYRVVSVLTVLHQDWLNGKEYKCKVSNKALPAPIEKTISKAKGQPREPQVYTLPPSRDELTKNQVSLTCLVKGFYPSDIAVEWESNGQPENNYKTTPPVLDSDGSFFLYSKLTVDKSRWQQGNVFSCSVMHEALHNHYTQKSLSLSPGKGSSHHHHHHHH

B1: Tavolixizumab (IgG1-kappa) (antibody, V domains shown)
VH: QVQLQESGPGLVKPSQTLSLTCAVYGGSFSSGYWNWIRKHPGKGLEYIGYISYNGITYHNPSLKSRITINRDTSKNQYSLQLNSVTPEDTAVYYCARYKYDYDGGHAMDYWGQGTLVTVSS
VL: DIQMTQSPSSLSASVGDRVTITCRASQDISNYLNWYQQKPGKAPKLLIYYTSKLHSGVPSRFSGSGSGTDYTLTISSLQPEDFATYYCQQGSALPWTFGQGTKVEIKR
binding result [1]: no binding
binding result [2]: binds

B3: GSK3174998 (antibody, human IgG1, kappa, V domains shown)
VH: EVKLEESGGGLVQPGGSMKLSCAASGFTFSDAWMDWVRQSPEKGLEWVAEIRSKANNHATYYAESVNGRFTISRDDSKSSVYLQMNSLRAEDTGIYYCTWGEVFYFDYWGQGTTLTVSS
VL: DIQMTQSPSSLSASLGGKVTITCKSSQDINKYIAWYQHKPGKGPRLLIHYTSTLQPGIPSRFSGSGSGRDYSFSISNLEPEDIATYYCLQYDNLLTFGAGTKLELKR
notes: also called Clinical mAB; clinical
binding result [3]: binds

B6: OX40:24-24(WEE)×11 (bispecific antibody)
chain 1: not shown
chain 2: EVQLVESGGGLVQPGGSLRLSCAASGFTFLSYYIHWVRQAPGKGLEWVAYIDPYSGGTDYADSVKGRFTISADTSKNTAYLQMNSLRAEDTAVYYCARVGLSFYAQEPVLDYWGQGTLVTVSSASPREPQVYTDPPSRDELTKNQVSLTCLVKGFYPSDIAVEWESNGQPENNYKTTPPVLDSDGSFFLYSKLTVDKSRWQQGNVFSCSVMHEALHNHYTQKSLSLSGEC
chain 3: DIQMTQSPSSLSASVGDRVTITCRASQSVSSAVAWYQQKPGKAPKLLIYSASSLYSGVPSRFSGSRSGTDFTLTISSLQPEDFATYYCQQYTSHPGTFGQGTKVEIKRTVAAPSVFIFPPSDEQLKSGTASVVCLLNNFYPREAKVQWKVDNALQSGNSQESVTEQDSKDSTYSLSSTLTLSKADYEKHKVYACEVTHQGLSSPVTKSFNRGECDKTHTCPPCPAPELLGGPSVFLFPPKPKDTLMISRTPEVTCVVVDVSHEDPEVKFNWYVDGVEVHNAKTKPREEQYNSTYRVVSVLTVLHQDWLNGKEYKCKVSNKALPAPIEKTISKAKGQPREPQVCTLPPSREEMTKNQVSLSCAVKGFYPSDIAVEWESNGQPENNYKTTPPVLDSDGSFFLVSKLTVDKSRWQQGNVFSCSVMHEALHNHYTQKSLSLSPGK
chain 4: EVQLVESGGGLVQPGGSLRLSCAASGFTFSSYVIHWVRQAPGKGLEWVAYIFPYGGTTYYADSVKGRFTISADTSKNTAYLQMNSLRAEDTAVYYCARGYYYVSDRVMDYWGQGTLVTVSSASTKGPSVFPLAPSSKSTSGGTAALGCLVKDYFPEPVTVSWNSGALTSGVHTFPAVLQSSGLYSLSSVVTVPSSSLGTQTYICNVNHKPSNTKVDKKVEPPKSC
antibody concentration at peak T cell proliferation [4]: 10 nM

Further lines, results first:

binding result [1]: no binding
binding result [2]: binds
B2: Pogalizumab (IgG1-kappa) (antibody, V domains shown)
VH: EVQLVQSGAEVKKPGASVKVSCKASGYTFTDSYMSWVRQAPGQGLEWIGDMYPDNGDSSYNQKFRERVTITRDTSTSTAYLELSSLRSEDTAVYYCVLAPRWYFSVWGQGTLVTVSS
VL: DIQMTQSPSSLSASVGDRVTITCRASQDISNYLNWYQQKPGKAPKLLIYYTSRLRSGVPSRFSGSGSGTDFTLTISSLQPEDFATYYCQQGHTLPPTFGQGTKVEIKR
notes: also called Pagolizumab

antibody concentration at peak T cell proliferation [4]: 10 nM
B4: OX40:24-24×11 (bispecific antibody)
chain 1: not shown
chain 2: EVQLVESGGGLVQPGGSLRLSCAASGFTFLSYYIHWVRQAPGKGLEWVAYIDPYSGGTDYADSVKGRFTISADTSKNTAYLQMNSLRAEDTAVYYCARVGLSFYAQEPVLDYWGQGTLVTVSSASPREPQVYTDPPSRDELTKNQVSLTCLVKGFYPSDIAVEWESNGQPENNYKTTPPVLDSDGSFFLYSKLTVDKSRWQQGNVFSCSVMHEALHNHYTQKSLSLSGEC
chain 3: DIQMTQSPSSLSASVGDRVTITCRASQSVSSAVAWYQQKPGKAPKLLIYSASSLYSGVPSRFSGSRSGTDFTLTISSLQPEDFATYYCQQYTSHPGTFGQGTKVEIKRTVAAPSVFIFPPSDEQLKSGTASVVCLLNNFYPREAKVQWKVDNALQSGNSQESVTEQDSKDSTYSLSSTLTLSKADYEKHKVYACEVTHQGLSSPVTKSFNRGECDKTHTCPPCPAPELLGGPSVFLFPPKPKDTLMISRTPEVTCVVVDVSHEDPEVKFNWYVDGVEVHNAKTKPREEQYNSTYRVVSVLTVLHQDWLNGKEYKCKVSNKALPAPIEKTISKAKGQPREPQVCTLPPSREEMTKNQVSLSCAVKGFYPSDIAVEWESNGQPENNYKTTPPVLDSDGSFFLVSKLTVDKSRWQQGNVFSCSVMHEALHNHYTQKSLSLSPGK
chain 4: EVQLVESGGGLVQPGGSLRLSCAASGFTFSSYVIHWVRQAPGKGLEWVAYIFPYGGTTYYADSVKGRFTISADTSKNTAYLQMNSLRAEDTAVYYCARGYYYVSDRVMDYWGQGTLVTVSSASTKGPSVFPLAPSSKSTSGGTAALGCLVKDYFPEPVTVSWNSGALTSGVHTFPAVLQSSGLYSLSSVVTVPSSSLGTQTYICNVNHKPSNTKVDKKVEPPKSC

antibody concentration at peak T cell proliferation [4]: < 10 nM
B5: OX40:24(WEE)-11×11 (bispecific antibody)
chain 1: not shown
chain 2: EVQLVESGGGLVQPGGSLRLSCAASGFTFSSYVIHWVRQAPGKGLEWVAYIFPYGGTTYYADSVKGRFTISADTSKNTAYLQMNSLRAEDTAVYYCARGYYYVSDRVMDYWGQGTLVTVSSASTKGPSVFPLAPSSKSTSGGTAALGCLVKDYFPEPVTVSWNSGALTSGVHTFPAVLQSSGLYSLSSVVTVPSSSLGTQTYICNVNHKPSNTKVDKKVEPPKSC
chain 3: DIQMTQSPSSLSASVGDRVTITCRASQSVSSAVAWYQQKPGKAPKLLIYSASSLYSGVPSRFSGSRSGTDFTLTISSLQPEDFATYYCQQYTSHPGTFGQGTKVEIKRTVAAPSVFIFPPSDEQLKSGTASVVCLLNNFYPREAKVQWKVDNALQSGNSQESVTEQDSKDSTYSLSSTLTLSKADYEKHKVYACEVTHQGLSSPVTKSFNRGECDKTHTCPPCPAPELLGGPSVFLFPPKPKDTLMISRTPEVTCVVVDVSHEDPEVKFNWYVDGVEVHNAKTKPREEQYNSTYRVVSVLTVLHQDWLNGKEYKCKVSNKALPAPIEKTISKAKGQPREPQVCTLPPSREEMTKNQVSLSCAVKGFYPSDIAVEWESNGQPENNYKTTPPVLDSDGSFFLVSKLTVDKSRWQQGNVFSCSVMHEALHNHYTQKSLSLSPGK
chain 4: EVQLVESGGGLVQPGGSLRLSCAASGFTFLSYYIHWVRQAPGKGLEWVAYIDPYSGGTDYADSVKGRFTISADTSKNTAYLQMNSLRAEDTAVYYCARVGLSFYAQEPVLDYWGQGTLVTVSSASPREPQVYTDPPSRDELTKNQVSLTCLVKGFYPSDIAVEWESNGQPENNYKTTPPVLDSDGSFFLYSKLTVDKSRWQQGNVFSCSVMHEALHNHYTQKSLSLSGEC

antibody concentration at peak T cell proliferation [4]: < 10 nM
B7: OX40:24-11×11 (bispecific antibody)
chain 1: not shown
chain 2: EVQLVESGGGLVQPGGSLRLSCAASGFTFSSYVIHWVRQAPGKGLEWVAYIFPYGGTTYYADSVKGRFTISADTSKNTAYLQMNSLRAEDTAVYYCARGYYYVSDRVMDYWGQGTLVTVSSASTKGPSVFPLAPSSKSTSGGTAALGCLVKDYFPEPVTVSWNSGALTSGVHTFPAVLQSSGLYSLSSVVTVPSSSLGTQTYICNVNHKPSNTKVDKKVEPPKSC
chain 3: DIQMTQSPSSLSASVGDRVTITCRASQSVSSAVAWYQQKPGKAPKLLIYSASSLYSGVPSRFSGSRSGTDFTLTISSLQPEDFATYYCQQYTSHPGTFGQGTKVEIKRTVAAPSVFIFPPSDEQLKSGTASVVCLLNNFYPREAKVQWKVDNALQSGNSQESVTEQDSKDSTYSLSSTLTLSKADYEKHKVYACEVTHQGLSSPVTKSFNRGECDKTHTCPPCPAPELLGGPSVFLFPPKPKDTLMISRTPEVTCVVVDVSHEDPEVKFNWYVDGVEVHNAKTKPREEQYNSTYRVVSVLTVLHQDWLNGKEYKCKVSNKALPAPIEKTISKAKGQPREPQVCTLPPSREEMTKNQVSLSCAVKGFYPSDIAVEWESNGQPENNYKTTPPVLDSDGSFFLVSKLTVDKSRWQQGNVFSCSVMHEALHNHYTQKSLSLSPGK
chain 4: EVQLVESGGGLVQPGGSLRLSCAASGFTFLSYYIHWVRQAPGKGLEWVAYIDPYSGGTDYADSVKGRFTISADTSKNTAYLQMNSLRAEDTAVYYCARVGLSFYAQEPVLDYWGQGTLVTVSSASPREPQVYTDPPSRDELTKNQVSLTCLVKGFYPSDIAVEWESNGQPENNYKTTPPVLDSDGSFFLYSKLTVDKSRWQQGNVFSCSVMHEALHNHYTQKSLSLSGEC
